Data reported in patent US20250018014A1, “METHOD FOR TREATING AND/OR PREVENTING REGNASE-1-RELATED DISEASE” (OSAKA UNIVERSITY, priority 2018, published 2025).
Read-outs that look alike come from different tables or passages of the source. Positions of bridges follow the written chain, without caps; N, C: chain ends. Non-standard residues stand in square brackets, D forms with d. *: point of attachment. NMeA = CN[C@@H](C)C(=O)O; Pyrrolidide = C1CCN(*)C1; dNMeA = CN[C@H](C)C(=O)O

Legend:
Assay in all cases: cell-based or functional assay
[1] = target: T1, full-length human Regnase-1 with a FLAG tag on the N-terminal side and a biotin ligase BirA recognition … (human, UniProt Q5D1E8 1-599, biotinylated at the BirA recognition sequence when required)
T1 sequence: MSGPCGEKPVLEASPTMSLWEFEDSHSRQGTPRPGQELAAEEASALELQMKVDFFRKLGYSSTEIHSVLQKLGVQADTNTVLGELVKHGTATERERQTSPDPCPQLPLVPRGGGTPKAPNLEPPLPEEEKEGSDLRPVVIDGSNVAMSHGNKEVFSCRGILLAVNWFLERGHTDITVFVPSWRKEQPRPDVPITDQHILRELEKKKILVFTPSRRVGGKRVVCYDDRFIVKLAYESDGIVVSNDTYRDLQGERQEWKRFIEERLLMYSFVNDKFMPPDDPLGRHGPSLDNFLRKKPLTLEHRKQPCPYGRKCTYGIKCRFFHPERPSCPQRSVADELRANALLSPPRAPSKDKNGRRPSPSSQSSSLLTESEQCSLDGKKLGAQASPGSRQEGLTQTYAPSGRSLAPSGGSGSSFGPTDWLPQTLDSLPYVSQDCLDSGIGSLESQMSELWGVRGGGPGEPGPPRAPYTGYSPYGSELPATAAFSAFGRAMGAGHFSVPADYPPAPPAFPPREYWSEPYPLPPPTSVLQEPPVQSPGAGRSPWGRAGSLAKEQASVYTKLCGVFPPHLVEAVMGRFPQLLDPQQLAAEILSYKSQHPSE

[2] = target: T2, C-terminal domain-deleted human Regnase-1 (amino acids 1 to 546) with N-terminal FLAG tag and C-terminal BirA … (human, UniProt Q5D1E8 1-546)
T2 sequence: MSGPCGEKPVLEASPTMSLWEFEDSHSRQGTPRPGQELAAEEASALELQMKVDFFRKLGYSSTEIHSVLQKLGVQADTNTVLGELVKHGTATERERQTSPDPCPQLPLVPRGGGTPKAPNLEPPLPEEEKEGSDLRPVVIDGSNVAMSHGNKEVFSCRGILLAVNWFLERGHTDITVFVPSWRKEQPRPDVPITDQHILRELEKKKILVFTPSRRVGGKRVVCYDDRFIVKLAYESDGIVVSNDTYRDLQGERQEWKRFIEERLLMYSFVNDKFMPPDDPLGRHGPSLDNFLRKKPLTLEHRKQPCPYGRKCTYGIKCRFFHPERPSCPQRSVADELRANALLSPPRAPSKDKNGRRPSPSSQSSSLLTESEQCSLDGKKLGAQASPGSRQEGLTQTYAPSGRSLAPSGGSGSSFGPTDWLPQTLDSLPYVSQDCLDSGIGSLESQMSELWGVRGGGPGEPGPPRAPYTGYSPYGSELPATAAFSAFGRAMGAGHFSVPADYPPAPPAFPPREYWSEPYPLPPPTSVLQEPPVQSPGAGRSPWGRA

[3] = target: T1, full-length human Regnase-1 with a FLAG …; remark: listed apart in the source
[4] = target: T2, C-terminal domain-deleted human …; remark: listed apart in the source
[5] = target: T3, C-terminal human Regnase-1 (amino acids 301 to 599) with N-terminal FLAG tag and C-terminal BirA recognition … (human, UniProt Q5D1E8 301-599)
T3 sequence: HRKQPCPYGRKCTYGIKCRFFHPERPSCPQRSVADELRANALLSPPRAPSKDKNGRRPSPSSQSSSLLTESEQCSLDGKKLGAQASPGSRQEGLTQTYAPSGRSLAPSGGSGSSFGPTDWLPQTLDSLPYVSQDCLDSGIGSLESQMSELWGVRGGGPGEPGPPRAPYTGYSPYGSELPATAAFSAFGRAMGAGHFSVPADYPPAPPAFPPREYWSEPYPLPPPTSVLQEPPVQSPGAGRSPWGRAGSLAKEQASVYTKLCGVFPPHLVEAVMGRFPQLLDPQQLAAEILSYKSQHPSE

[6] = target: T1, full-length human Regnase-1 with a FLAG …; remark: listed apart in the source
[7] = target: T2, C-terminal domain-deleted human …; remark: listed apart in the source
[8] = target: T3, C-terminal human Regnase-1 (amino acids …); remark: listed apart in the source

B1: PP1 (peptide)
peptide: XTSWYKVNWGQD
HELM: PEPTIDE1{[meA].T.S.W.Y.K.V.N.W.G.Q.D.[C1CCN([*:1])C1]}$PEPTIDE1,PEPTIDE1,1:R1-12:R3$$$V2.0
SMILES: CC(C)[C@@H]1NC(=O)[C@H](CCCCN)NC(=O)[C@H](Cc2ccc(O)cc2)NC(=O)[C@H](Cc2c[nH]c3ccccc23)NC(=O)[C@H](CO)NC(=O)[C@H]([C@@H](C)O)NC(=O)[C@H](C)N(C)C(=O)C[C@@H](C(=O)N2CCCC2)NC(=O)[C@H](CCC(N)=O)NC(=O)CNC(=O)[C@H](Cc2c[nH]c3ccccc23)NC(=O)[C@H](CC(N)=O)NC1=O
50% inhibition concentration, Regnase-1 phosphorylation by IKKβ (AlphaScreen) [1]: 28.1 µM | 50% inhibition concentration, Regnase-1 phosphorylation by TBK1 (AlphaScreen) [1]: 54.5 µM | 50% inhibition concentration, Regnase-1 phosphorylation by IKKβ (AlphaScreen) [2]: > 62.1 µM | 50% inhibition concentration, Regnase-1 phosphorylation by TBK1 (AlphaScreen) [2]: > 62.1 µM | 50% inhibition concentration, Regnase-1 phosphorylation by TBK1 (AlphaScreen) [3]: 54.5 µM | 50% inhibition concentration, Regnase-1 phosphorylation by TBK1 (AlphaScreen) [4]: > 62.1 µM | 50% inhibition concentration, Regnase-1 phosphorylation by TBK1 (AlphaScreen) [5]: > 62.1 µM | 50% inhibition concentration, Regnase-1 phosphorylation by IKKβ (AlphaScreen) [6]: 28.1 µM | 50% inhibition concentration, Regnase-1 phosphorylation by IKKβ (AlphaScreen) [7]: > 62.1 µM | 50% inhibition concentration, Regnase-1 phosphorylation by IKKβ (AlphaScreen) [8]: > 62.1 µM

B2: PP6 (peptide)
peptide: XPNSSWFKIWD
HELM: PEPTIDE1{[C[C@H](C(=O)[*:2])N(C)[*:1]].P.N.S.S.W.F.K.I.W.D.[C1CCN([*:1])C1]}$PEPTIDE1,PEPTIDE1,1:R1-11:R3$$$V2.0
SMILES: CC[C@H](C)[C@@H]1NC(=O)[C@H](CCCCN)NC(=O)[C@H](Cc2ccccc2)NC(=O)[C@H](Cc2c[nH]c3ccccc23)NC(=O)[C@H](CO)NC(=O)[C@H](CO)NC(=O)[C@H](CC(N)=O)NC(=O)[C@@H]2CCCN2C(=O)[C@@H](C)N(C)C(=O)C[C@@H](C(=O)N2CCCC2)NC(=O)[C@H](Cc2c[nH]c3ccccc23)NC1=O
50% inhibition concentration, Regnase-1 phosphorylation by IKKβ (AlphaScreen) [1]: 17 µM | 50% inhibition concentration, Regnase-1 phosphorylation by TBK1 (AlphaScreen) [1]: 13.1 µM | 50% inhibition concentration, Regnase-1 phosphorylation by IKKβ (AlphaScreen) [2]: 20.3 µM | 50% inhibition concentration, Regnase-1 phosphorylation by TBK1 (AlphaScreen) [2]: 14.5 µM | 50% inhibition concentration, Regnase-1 phosphorylation by TBK1 (AlphaScreen) [3]: 13.1 µM | 50% inhibition concentration, Regnase-1 phosphorylation by TBK1 (AlphaScreen) [4]: 14.5 µM | 50% inhibition concentration, Regnase-1 phosphorylation by TBK1 (AlphaScreen) [5]: 16.8 µM | 50% inhibition concentration, Regnase-1 phosphorylation by IKKβ (AlphaScreen) [6]: 17 µM | 50% inhibition concentration, Regnase-1 phosphorylation by IKKβ (AlphaScreen) [7]: 20.3 µM | 50% inhibition concentration, Regnase-1 phosphorylation by IKKβ (AlphaScreen) [8]: 17.5 µM

B3: PP5 (peptide)
peptide: XHSNAWYNIWD
HELM: PEPTIDE1{[meA].H.S.N.A.W.Y.N.I.W.D.[C1CCN([*:1])C1]}$PEPTIDE1,PEPTIDE1,1:R1-11:R3$$$V2.0
SMILES: CC[C@H](C)[C@@H]1NC(=O)[C@H](CC(N)=O)NC(=O)[C@H](Cc2ccc(O)cc2)NC(=O)[C@H](Cc2c[nH]c3ccccc23)NC(=O)[C@H](C)NC(=O)[C@H](CC(N)=O)NC(=O)[C@H](CO)NC(=O)[C@H](Cc2c[nH]cn2)NC(=O)[C@H](C)N(C)C(=O)C[C@@H](C(=O)N2CCCC2)NC(=O)[C@H](Cc2c[nH]c3ccccc23)NC1=O
50% inhibition concentration, Regnase-1 phosphorylation by IKKβ (AlphaScreen) [1]: 23.6 µM | 50% inhibition concentration, Regnase-1 phosphorylation by TBK1 (AlphaScreen) [1]: 24.2 µM | 50% inhibition concentration, Regnase-1 phosphorylation by IKKβ (AlphaScreen) [2]: 20.4 µM | 50% inhibition concentration, Regnase-1 phosphorylation by TBK1 (AlphaScreen) [2]: 19.1 µM | 50% inhibition concentration, Regnase-1 phosphorylation by TBK1 (AlphaScreen) [3]: 24.2 µM | 50% inhibition concentration, Regnase-1 phosphorylation by TBK1 (AlphaScreen) [4]: 19.1 µM | 50% inhibition concentration, Regnase-1 phosphorylation by TBK1 (AlphaScreen) [5]: 40.4 µM | 50% inhibition concentration, Regnase-1 phosphorylation by IKKβ (AlphaScreen) [6]: 23.6 µM | 50% inhibition concentration, Regnase-1 phosphorylation by IKKβ (AlphaScreen) [7]: 20.4 µM | 50% inhibition concentration, Regnase-1 phosphorylation by IKKβ (AlphaScreen) [8]: 31.3 µM

B4: PP2 (peptide)
peptide: XGYANSWYNIWD
HELM: PEPTIDE1{[meA].G.Y.A.N.S.W.Y.N.I.W.D.[C1CCN([*:1])C1]}$PEPTIDE1,PEPTIDE1,1:R1-12:R3$$$V2.0
SMILES: CC[C@H](C)[C@@H]1NC(=O)[C@H](CC(N)=O)NC(=O)[C@H](Cc2ccc(O)cc2)NC(=O)[C@H](Cc2c[nH]c3ccccc23)NC(=O)[C@H](CO)NC(=O)[C@H](CC(N)=O)NC(=O)[C@H](C)NC(=O)[C@H](Cc2ccc(O)cc2)NC(=O)CNC(=O)[C@H](C)N(C)C(=O)C[C@@H](C(=O)N2CCCC2)NC(=O)[C@H](Cc2c[nH]c3ccccc23)NC1=O
50% inhibition concentration, Regnase-1 phosphorylation by IKKβ (AlphaScreen) [1]: 16.6 µM | 50% inhibition concentration, Regnase-1 phosphorylation by TBK1 (AlphaScreen) [1]: 21.7 µM | 50% inhibition concentration, Regnase-1 phosphorylation by IKKβ (AlphaScreen) [2]: 14 µM | 50% inhibition concentration, Regnase-1 phosphorylation by TBK1 (AlphaScreen) [2]: 17.6 µM | 50% inhibition concentration, Regnase-1 phosphorylation by TBK1 (AlphaScreen) [3]: 21.7 µM | 50% inhibition concentration, Regnase-1 phosphorylation by TBK1 (AlphaScreen) [4]: 17.6 µM | 50% inhibition concentration, Regnase-1 phosphorylation by TBK1 (AlphaScreen) [5]: 22.4 µM | 50% inhibition concentration, Regnase-1 phosphorylation by IKKβ (AlphaScreen) [6]: 16.6 µM | 50% inhibition concentration, Regnase-1 phosphorylation by IKKβ (AlphaScreen) [7]: 14 µM | 50% inhibition concentration, Regnase-1 phosphorylation by IKKβ (AlphaScreen) [8]: 18.5 µM

[dNMeA]KHASAWYRIWD-Pyrrolidide (lactam N-12) [PP3]
50% inhibition concentration, Regnase-1 phosphorylation by IKKβ (AlphaScreen) [1]: 4.6 µM | 50% inhibition concentration, Regnase-1 phosphorylation by TBK1 (AlphaScreen) [1]: 3.9 µM | 50% inhibition concentration, Regnase-1 phosphorylation by IKKβ (AlphaScreen) [2]: 8.3 µM | 50% inhibition concentration, Regnase-1 phosphorylation by TBK1 (AlphaScreen) [2]: 5.7 µM | 50% inhibition concentration, Regnase-1 phosphorylation by TBK1 (AlphaScreen) [3]: 3.9 µM | 50% inhibition concentration, Regnase-1 phosphorylation by TBK1 (AlphaScreen) [4]: 5.7 µM | 50% inhibition concentration, Regnase-1 phosphorylation by TBK1 (AlphaScreen) [5]: 7.1 µM | 50% inhibition concentration, Regnase-1 phosphorylation by IKKβ (AlphaScreen) [6]: 4.6 µM | 50% inhibition concentration, Regnase-1 phosphorylation by IKKβ (AlphaScreen) [7]: 8.3 µM | 50% inhibition concentration, Regnase-1 phosphorylation by IKKβ (AlphaScreen) [8]: 6.8 µM

[NMeA]YIWDFFGDLD-Pyrrolidide (lactam N-11) [PP4]
50% inhibition concentration, Regnase-1 phosphorylation by IKKβ (AlphaScreen) [1]: 19.5 µM | 50% inhibition concentration, Regnase-1 phosphorylation by TBK1 (AlphaScreen) [1]: 61.9 µM | 50% inhibition concentration, Regnase-1 phosphorylation by IKKβ (AlphaScreen) [2]: 8.3 µM | 50% inhibition concentration, Regnase-1 phosphorylation by TBK1 (AlphaScreen) [2]: 44.9 µM | 50% inhibition concentration, Regnase-1 phosphorylation by TBK1 (AlphaScreen) [3]: 61.9 µM | 50% inhibition concentration, Regnase-1 phosphorylation by TBK1 (AlphaScreen) [4]: 44.9 µM | 50% inhibition concentration, Regnase-1 phosphorylation by TBK1 (AlphaScreen) [5]: 35.9 µM | 50% inhibition concentration, Regnase-1 phosphorylation by IKKβ (AlphaScreen) [6]: 19.5 µM | 50% inhibition concentration, Regnase-1 phosphorylation by IKKβ (AlphaScreen) [7]: 8.3 µM | 50% inhibition concentration, Regnase-1 phosphorylation by IKKβ (AlphaScreen) [8]: 12.8 µM
